Results as given in PMC9576616, “Synthesis, preclinical evaluation and radiation dosimetry of a dual targeting PET tracer [^68Ga]Ga-FAPI-RGD” (Theranostics, 2022).
Read-outs that look alike come from different tables or passages of the source. Values belong to the compound of their own block, whether it stands above or below them.

Assays:
[1] = test system: primary tumors and metastases; test: Comparison of [^68Ga]Ga-FAPI-RGD and 2-[^18F]FDG PET/CT tumor uptake in patients
Protocol: (§1) All patients underwent [^68Ga]Ga-FAPI-RGD PET/CT and 2-[^18F]FDG PET scanning using a dedicated PET/CT scanner (Biograph mCT64, Siemens Healthcare).
(§2) [^68Ga]Ga-FAPI-RGD PET/CT The CT scans were performed with a tube voltage of 120 kV, an effective tube current of 70-120 mA (Care Dose 4D), and a slice thickness of 3 mm. Serial whole-body dynamic PET scans were immediately performed after the CT scan in 3D acquisition mode (matrix: 200 × 200). The whole body (from the top of skull to the middle of femur) of each patient was covered by 6 bed positions. The acquisition duration was 30 s/bed position at 3 min after injection; 1 min/bed position at 15 min after injection; and 2 min/bed position at 30, 60, and 120 min after injection.
(§3) 2-[^18F]FDG PET/CT All patients were fast at least 6 h to keep and images were obtained at 60-80 min after the intravenous injection of 2-[^18F]FDG (3.70 MBq [0.10 mCi]/kg). 2-[^18F]FDG was purchased from Fuzhou PET-Tracer Co. Ltd, and the radiochemical purity was more than 95%.
(§4) For [^68Ga]Ga-FAPI-RGD PET/CT, only PET/CT datasets acquired approximately 1 h after injection were used for analysis.

Panc02 tumor cells = test: Cellular uptake assay on Panc02 tumor cells; format: cell-based; details: 37 kBq, 37 °C, 10, 30, 60, 90 and 120 min, n = 4
Protocol: Panc02 cell line was purchased from the American Type Culture Collection (ATCC), and cultured in Dulbecco modified Eagle medium (DMEM) containing 10% (v/v) fetal bovine serum (FBS) at 37 °C with 5% CO2. Panc02 cells were seeded in 24-well plates with 2 × 10^5 cells per well. […] Then, the medium was removed and the cells were washed twice with cold PBS (pH 7.4) and subsequently lysed with 0.5 mL of NaOH (1 M). In the blocking studies, excess amount of unlabeled FAPI-RGD, FAPI-02, RGDfK, FAPI-02+RGDfK (10 μg/well) were added as inhibitors into the cells along with [^68Ga]Ga-FAPI-RGD. After 1 h, the cells were treated in the same way. Cell lysates was collected and the radioactivity was determined using a γ counter.

[2] = MicroPET imaging in Panc02 tumor-bearing mice; set-up: species or system C57BL/6 mice; details: C57BL/6, mouse, in vivo, iv, 7.4 MBq, total radioactivity; for tissue uptake at 0.5 h: 0.5 h p.i.; for tissue uptake at 1 h: 1 h p.i.; for tissue uptake at 2 h: 2 h p.i.; for tissue uptake at 4 h: 4 h p.i.
Protocol: All animal studies were approved by the Animal Care and Use Committee of Xiamen University and carried out in compliance with the national laws related to the conduct of animal experiments. Panc02 tumor model was generated by subcutaneous injection of 5 × 10^6 tumor cells suspended in 100 μL PBS, into the upper limb flank of C57BL/6 mice (Beijing Vital River Laboratory Animal Technology Co., Ltd.). The tumor mice were subjected to microPET and biodistributions studies when the tumor volume reached 200-300 mm^3.
PET scans were performed by using Inveon small-animal PET scanner (Siemens Preclinical Solution). About 7.4 MBq of [^68Ga]Ga-FAPI-RGD was given to Panc02 tumor xenografted mice through tail vein injection for the 10-min static PET imaging. At 0.5, 1, 2 and 4 h post-injection (p.i.), mice were anaesthetized and placed on imaging chamber of PET/CT scanner for image acquisition. […] The blocking study was performed by injecting unlabeled c(RGDfK), FAPI-02, or RGDfK+FAPI-02, before administering [^68Ga]Ga-FAPI-RGD. PET images were reconstructed using three-dimensional ordered-subset expectation-maximization (3D OSEM) algorithm and with a Maximum a Posteriori (MAP) method and analyzed through drawing regions of interest (ROIs).

in vivo = test: in vivo; set-up: species or system C57BL/6 mice; details: C57BL/6, mouse, iv, 740 kBq, total radioactivity
Protocol: All animal studies were approved by the Animal Care and Use Committee of Xiamen University and carried out in compliance with the national laws related to the conduct of animal experiments. […] Tissue and organs of interest were collected, wet weighted and activity measured by a γ-counter. […] The results were calculated as percentage of injected dose per gram (%ID/g).

[3] = human, in vivo
Protocol: Organ delineation and activity accumulation at each imaging time point was determined using Hybrid-Dosimetry software (Hermes Medical Solutions, Sweden). Time-activity curve fitting and subsequent dose calculation was performed using OLINDA/EXM, version 2.2.0. Kidneys, liver, spleen, urinary bladder content, L2-L4 lumbar vertebrae for red marrow dosimetry, heart content, lung, brain, pancreas, thyroid, salivary glands and stomach contents were included as source organs. Red bone marrow dosimetry was done by image-based 3D volumetric analysis of L2-L4 vertebrae, which is considered to constitute 6.7% of the total bone marrow. The ROIs for the above organs were drawn from the examination that had the best organ delineation and then were copied onto all other time points to calculate the time-activity curves. The mono- or bi-exponential curve fitting parameters were applied to derive the best curve fit for the residence time of activity in the source organ. Once all the organ residence times were derived from the kinetic input model, they were entered in the adult female or male model data to derive the absorbed doses to all the organs, including the whole-body effective dose, and generated in mSv/MBq and rem/mCi. The time-activity graphs of various organs were generated using GraphPad Prism software.

clinical [4] = details: human, in vivo, total radioactivity
Protocol: as §1, §2, §3, §4

clinical [5] = details: human, in vivo, total radioactivity; remark: listed apart in the source
Protocol: (§5) This study was approved by the institutional review board of the First Affiliated Hospital, Fujian Medical University and registered at ClinicalTrials.gov (NCT05515783). All patients signed an informed consent form before participation and all procedures were conducted in accordance with the Declaration of Helsinki. The inclusion criteria were as follows: […] (2) primary malignancies confirmed by pathology. The exclusion criteria were patients: (1) who suffered from severe hepatic and renal insufficiency; (2) pregnant or lactational women.

[6] = test system: malignant tumors and normal organs; test: clinical; details: human, in vivo
Protocol: as §5

[7] = format: physicochemical
Protocol: Radiolabeling of ^68Ga was performed by incubation with 50 μg FAPI-RGD in NaOAc buffer solution (pH = 4.5) at 95 ℃ for 10 min. The product was purified by C18 column extraction. The radiochemical purity and stability of [^68Ga]Ga-FAPI-RGD were determined by radio-HPLC.
FAPI-RGD and its intermediate products were characterized by TOF-MS and HPLC (Figure S1-9). The radiolabeling yield and radiochemical purity of [^68Ga]Ga-FAPI-RGD were consistently over 99%. […] The radiochemistry purity was over 99% within 4 h.

[8] = i.v. tail vein, n = 3, ROI, mean ± SD
[9] = average SUVmean of thyroid glands

mean SUVmax in primary tumors ([1]; 6 patients, FAPI-RGD approximately 1 h after injection, FDG 60-80 min after injection, mean ± SD, p = 0.459): 10.3 ± 6.9
SUVmax of primary lesion, patient with renal cell carcinoma ([1]; single patient, intra-individual comparison): 2.7
SUVmax of metastasis ([1]; three patients with metastatic foci, mean ± SD, p = 0.373): 7.6 ± 5.3
Structure (SMILES): OC[C@H]1O[C@@H](O)[C@H]([18F])[C@@H](O)[C@@H]1O [2-[^18F]FDG, reference compound]

Structure (SMILES): N=C(N)NCCC[C@@H]1NC(=O)[C@H](CCCCNC(=O)CN2CCN(CC(=O)O)CCN(CC(=O)O)CC2)NC(=O)[C@@H](Cc2ccccc2)NC(=O)[C@H](CC(=O)O)NC(=O)CNC1=O [[^68Ga]Ga-RGDfK, metal not drawn, reference compound]
cellular uptake compared with [^68Ga]Ga-FAPI-RGD (Panc02 tumor cells): less than [^68Ga]Ga-FAPI-RGD at all the time points
tissue uptake at 0.5 h [2, 8]: 3.96 ± 0.24 %ID/g
tissue uptake at 1 h [2, 8]: 3.4 ± 0.16 %ID/g
tissue uptake at 2 h [2, 8]: 2.89 ± 0.09 %ID/g
tissue uptake at 1 h (in vivo): 3.51 ± 0.47 %ID/g

Structure (SMILES): N#C[C@@H]1CCCN1C(=O)CNC(=O)c1ccnc2ccc(OCCCN3CCN(C(=O)CCOCCOCCNC(=O)[C@H](CCC(=O)NCCOCCOCCC(=O)NCCCC[C@@H]4NC(=O)[C@@H](Cc5ccccc5)NC(=O)[C@H](CC(=O)O)NC(=O)CNC(=O)[C@H](CCCNC(=N)N)NC4=O)NC(=O)CN4CCN(CC(=O)O)CCN(CC(=O)O)CC4)CC3)cc12 [[^68Ga]Ga-FAPI-RGD, metal not drawn]
tissue uptake at 0.5 h [2, 8]: 5.25 ± 0.54 %ID/g
tissue uptake at 1 h [2, 8]: 5.13 ± 0.65 %ID/g
tissue uptake at 2 h [2, 8]: 5.33 ± 0.27 %ID/g
tissue uptake at 4 h ([2]; i.v. tail vein, n = 3, ROI, mean ± SD, read-out: tumor uptake (microPET)): 5.04 ± 0.16 %ID/g
tissue uptake at 4 h ([2]; n = 3, read-out: blood uptake (microPET)): 1.4 ± 0.08 %ID/g
tissue uptake at 4 h ([2]; n = 3, read-out: kidney uptake (microPET)): 2.78 ± 0.46 %ID/g
tissue uptake at 4 h ([2]; n = 3, read-out: liver uptake (microPET)): 1.83 ± 0.39 %ID/g
effective dose [3]: 1.94 mSv/100 MBq
total body effective dose for administration of 185 MBq (5.0 mCi) [3]: 3.6 mSv
Estimated absorbed dose, Adrenals ([3]; iv): 1.04E-02 mSv/MBq
Estimated absorbed dose, Brain ([3]; iv): 3.38E-03 mSv/MBq
Estimated absorbed dose, Esophagus ([3]; iv): 7.55E-03 mSv/MBq
Estimated absorbed dose, Eyes ([3]; iv): 5.47E-03 mSv/MBq
Estimated absorbed dose, Gallbladder Wall ([3]; iv): 8.35E-03 mSv/MBq
Estimated absorbed dose, Heart Wall ([3]; iv): 2.04E-02 mSv/MBq
Estimated absorbed dose, Kidneys ([3]; iv): 3.24E-02 mSv/MBq
Estimated absorbed dose, Left colon ([3]; iv): 7.80E-03 mSv/MBq
Estimated absorbed dose, Liver ([3]; iv): 1.45E-02 mSv/MBq
Estimated absorbed dose, Lungs ([3]; iv): 2.33E-02 mSv/MBq
Estimated absorbed dose, Osteogenic Cells ([3]; iv): 1.07E-02 mSv/MBq
Estimated absorbed dose, Pancreas ([3]; iv): 3.06E-02 mSv/MBq
Estimated absorbed dose, Prostate ([3]; iv): 1.24E-02 mSv/MBq
Estimated absorbed dose, Rectum ([3]; iv): 1.06E-02 mSv/MBq
Estimated absorbed dose, Red Marrow ([3]; iv): 1.45E-02 mSv/MBq
Estimated absorbed dose, Right colon ([3]; iv): 7.53E-03 mSv/MBq
Estimated absorbed dose, Salivary Glands ([3]; iv): 2.09E-02 mSv/MBq
Estimated absorbed dose, Small Intestine ([3]; iv): 8.16E-03 mSv/MBq
Estimated absorbed dose, Spleen ([3]; iv): 2.25E-02 mSv/MBq
Estimated absorbed dose, Stomach Wall ([3]; iv): 1.20E-02 mSv/MBq
Estimated absorbed dose, Testes ([3]; iv): 7.13E-03 mSv/MBq
Estimated absorbed dose, Thymus ([3]; iv): 7.41E-03 mSv/MBq
Estimated absorbed dose, Thyroid ([3]; iv): 3.31E-02 mSv/MBq
Estimated absorbed dose, Total Body ([3]; iv): 8.92E-03 mSv/MBq
Estimated absorbed dose, Urinary Bladder Wall ([3]; iv): 2.26E-01 mSv/MBq
effective dose ([3]; iv): 1.94E-02 mSv/MBq
SUV at 1 h (clinical [4]; SUVmax of metastasis): 6.5 ± 2.6 SUV
SUV at 1 h (clinical [4]; SUVmax of primary lesion, patient with renal cell carcinoma): 5.1 SUV
SUV at 1 h (clinical [4]; mean SUVmax in primary tumors): 8.9 ± 3.2 SUV
SUV at 0.05 h (clinical [5]; [9]): 7.8 SUV
SUV at 2 h (clinical [5]; [9]): 3 SUV
SUV at 0.05 h (clinical [5]; average tumor SUVmax): 7 SUV
SUV at 0.25 h (clinical [5]; average tumor SUVmax): 8 SUV
SUV at 0.5 h (clinical [5]; average tumor SUVmax): 8 SUV
SUV at 1 h (clinical [5]; average tumor SUVmax): 8.3 SUV
SUV at 2 h (clinical [5]; average tumor SUVmax): 9.1 SUV
decline of thyroid SUVmean from 3 min to 2.0 h [6]: 62.5%
main excretory organs [6]: kidneys were the main excretory organs
time of good stability in saline [7]: at least 4 h
tissue uptake at 0.5 h (in vivo): 6.16 ± 0.46 %ID/g
tissue uptake at 1 h (in vivo): 5.95 ± 0.43 %ID/g
tissue uptake at 2 h (in vivo): 5.78 ± 0.28 %ID/g
tissue uptake at 4 h (in vivo): 5.79 ± 0.22 %ID/g
